This note sets out measurements from paper PMC8207215.

One may read the stoichiometry N as a count of units in the complex or per binding partner. As usually defined, the Ki is a measure of affinity in units of concentration, obtained from inhibition or displacement.

For assay [1], the target named is recombinant human insulin-regulated aminopeptidase (IRAP), secreted soluble form (human) (UniProt Q9UIQ6). Briefly: SEC.
For assay [2] the target is unchanged. Briefly: native gel or EMSA. A general note: In EMSA bound probe runs differently from free probe, usually more slowly.
For assay [3] the target is unchanged. Briefly: enzyme inhibition assay.

Consider “recombinant human insulin-regulated aminopeptidase (IRAP), secreted soluble form (from UniProt Q9UIQ6 155-1025) (enzyme)”, for which the stoichiometry N in assay [1] and in assay [2] was 2 in each case.
As for VYPWT [peptide inhibitor VYPWT], the Ki in assay [3] stood at 98 nM.
